B1: 42-mer ssDNA, viral U5 end of 3'-LTR (ssDNA)
DNA: TCCCTCAGACCCTTTTAGTCAGTGTGGAAAATCTCTAGCAGT

Assays:
Assay in all cases: BLI
[1] = molecular target: HIV-1 viral infectivity factor (Vif), full length, refolded, biotinylated (HIV-1) (UniProt P12504)
A3Fc-CD2 Y307A = A3Fc-CD2 Y307A (human, UniProt Q9HC16 197-221+Q8IUX4:220-373, Y307A;internal_change)
A3Fc-CD2 Y314A = A3Fc-CD2 Y314A (human, UniProt Q9HC16 197-221+Q8IUX4:220-373, Y314A;internal_change)
A3Fc-CD2 F309A = A3Fc-CD2 F309A (human, UniProt Q9HC16 197-221+Q8IUX4:220-373, F309A;internal_change)
A3Fc-CD2 W310A = A3Fc-CD2 W310A (human, UniProt Q9HC16 197-221+Q8IUX4:220-373, W310A;internal_change)
A3Fc-CD2 D313A = A3Fc-CD2 D313A (human, UniProt Q9HC16 197-221+Q8IUX4:220-373, D313A;internal_change)
A3Fc-CD2 Y308A = A3Fc-CD2 Y308A (human, UniProt Q9HC16 197-221+Q8IUX4:220-373, Y308A;internal_change)

Molecule	Kd [1] [µM]	Kd (A3Fc-CD2 Y307A) [µM]	Kd (A3Fc-CD2 Y314A) [µM]	Kd (A3Fc-CD2 F309A) [µM]	Kd (A3Fc-CD2 W310A) [µM]	Kd (A3Fc-CD2 D313A) [µM]	Kd (A3Fc-CD2 Y308A) [µM]
A3Fc-CD2 L263A (from UniProt Q9HC16 197-221; Q8IUX4 218-373) (domain or fragment)	1.1	–	–	–	–	–	–
chimeric A3F C-terminal domain (A3Fc-CD2), wild type (from UniProt Q9HC16 197-221; Q8IUX4 218-373) (domain or fragment)	1.1	–	–	–	–	–	–
B1	–	410	68	31	27	220	18
